Measurements: article doi:10.1101/047555
Where no end group is shown, it is not given here. fluorescein = fluorescein-aminocaproic acid; Ahx = NCCCCCC(=O)O

Molecular target: EP12, C-terminal region of MamE containing only the PDZ domains (Magnetospirillum magneticum AMB-1)
Assay: fluorescence polarisation

{fluorescein-Ahx}-WSQEMEDWFWQMPLSG [PDZ1* peptide (fluorescein-labelled, phage-derived ligand of MamE PDZ1)]
fold tighter binding than the PDZ2 peptide: 10 fold
